From patent EP3623383A1 (Deutsches Krebsforschungszentrum, Stiftung des öffentlichen …, dated 2020)

T1: His tagged, recombinant FLT3 protein (Sino Biologicals) (human, UniProt P36888 27-541, limits assumed)
T1 construct: also called soluble recombinant FLT3 protein; not shown: His tag
T1 sequence (looked up): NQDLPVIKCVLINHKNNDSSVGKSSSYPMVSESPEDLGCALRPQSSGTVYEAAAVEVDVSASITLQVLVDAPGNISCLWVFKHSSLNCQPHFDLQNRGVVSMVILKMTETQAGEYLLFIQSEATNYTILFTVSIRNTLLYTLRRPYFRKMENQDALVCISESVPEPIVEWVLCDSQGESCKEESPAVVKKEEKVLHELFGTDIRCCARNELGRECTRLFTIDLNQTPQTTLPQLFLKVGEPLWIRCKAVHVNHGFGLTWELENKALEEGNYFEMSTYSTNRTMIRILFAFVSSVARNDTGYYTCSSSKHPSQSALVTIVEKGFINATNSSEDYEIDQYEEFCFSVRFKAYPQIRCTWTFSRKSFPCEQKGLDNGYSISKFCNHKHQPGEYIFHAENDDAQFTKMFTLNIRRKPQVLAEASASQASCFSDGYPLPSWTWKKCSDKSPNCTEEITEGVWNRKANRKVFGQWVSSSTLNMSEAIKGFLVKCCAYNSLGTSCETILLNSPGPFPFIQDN


Legend:
[1] = target: T1, His tagged, recombinant FLT3 protein …; test: SPR (Biacore X); antibody captured on protein A chip, His-tagged FLT3 in solution
[2] = target: T2, CD3 as expressed on Jurkat cells (CD3+) (human, UniProt P07766 23-207); test: flow cytometry on CD3+ Jurkat cells; value told of the CD3 binding part shared by V1 to V5
T2 construct: whole, on cells; CD3 is a complex of several chains; also called Jurkat cells expressing CD3
T2 sequence (P07766 23-207): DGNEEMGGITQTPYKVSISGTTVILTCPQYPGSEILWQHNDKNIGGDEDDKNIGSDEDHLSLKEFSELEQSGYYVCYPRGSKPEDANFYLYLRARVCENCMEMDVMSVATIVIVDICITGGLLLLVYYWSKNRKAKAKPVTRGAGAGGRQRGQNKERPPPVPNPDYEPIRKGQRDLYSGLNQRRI

Binder	Kd [1] [nM]	koff [1] [s⁻¹]	kon [1] [M⁻¹ s⁻¹]	EC50 [2] [nM]
V3-V6 (CC-2 variant 3, bispecific FLT3xCD3 IgGsc antibody) (bispecific antibody, also called Version 3; Humanized 4G8 FLT3 variable region Variant 3 with V6 CD3 scFv) heavy: QVQLVQSGAEVKKPGASVKVSCKASGYTFTSYWMHWVRQAPGQGLEWIGEIDPSDSYKDYNQKFKDRVTMTRDTSTSTVYMELSSLRSEDTAVYYCARAITTTPFDFWGQGTTVTVSSASTKGPSVFPLAPSSKSTSGGTAALGCLVKDYFPEPVTVSWNSGALTSGVHTFPAVLQSSGLYSLSSVVTVPSSSLGTQTYICNVNHKPSNTKVDKKVEPKSCDKTHTCPPCPAPPVAGPSVFLFPPKPKDTLMISRTPEVTCVVVGVSHEDPEVKFNWYVDGVEVHNAKTKPREEQYNSTYRVVSVLTVLHQDWLNGKEYKCKVSNKQLPSPIEKTISKAKGQPREPQVYTLPPSRDELTKNQVSLTCLVKGFYPSDIAVEWESNGQPENNYKTTPPVLDSDGSFFLYSKLTVDKSRWQQGNVFSCSVMHEALHNHYTQKSLSLSPGKSGDIQMTQSPSSLSASVGDRVTITCRASQDIRNYLNWYQQKPGKAPKLLIYYTSRLESGVPSRFSGSGSGTDYTLTISSLQPEDFATYYCQQGNTLPWTFGQGTKVEIKGGGGSGGGGSGGGGSEVQLVESGGGLVQPGGSLRLSCAASGYSFTGYTMNWVRQAPGKGLEWVALINPYKGVSTYNQKFKDRFTISVDKSKNTAYLQMNSLRAEDTAVYYCARSGYYGDSDWYFDVWGQGTLVTVSS light: not shown	87000	0.0233	276	~10
V4-V6 (CC-2 variant 4, bispecific FLT3xCD3 IgGsc antibody) (bispecific antibody, IgGsc format, Fc-attenuated; also called Version 4; variant V4) heavy: QVQLVQSGAEVKKPGASVKVSCKASGYTFTSYWMHWVRQAPGQGLEWIGEIDPSDSYKDYNQKFKDRVTMTRDTSTSTVYMELSSLRSEDTAVYYCARAITTTPFDFWGQGTTVTVSSASTKGPSVFPLAPSSKSTSGGTAALGCLVKDYFPEPVTVSWNSGALTSGVHTFPAVLQSSGLYSLSSVVTVPSSSLGTQTYICNVNHKPSNTKVDKKVEPKSCDKTHTCPPCPAPPVAGPSVFLFPPKPKDTLMISRTPEVTCVVVGVSHEDPEVKFNWYVDGVEVHNAKTKPREEQYNSTYRVVSVLTVLHQDWLNGKEYKCKVSNKQLPSPIEKTISKAKGQPREPQVYTLPPSRDELTKNQVSLTCLVKGFYPSDIAVEWESNGQPENNYKTTPPVLDSDGSFFLYSKLTVDKSRWQQGNVFSCSVMHEALHNHYTQKSLSLSPGKSGDIQMTQSPSSLSASVGDRVTITCRASQDIRNYLNWYQQKPGKAPKLLIYYTSRLESGVPSRFSGSGSGTDYTLTISSLQPEDFATYYCQQGNTLPWTFGQGTKVEIKGGGGSGGGGSGGGGSEVQLVESGGGLVQPGGSLRLSCAASGYSFTGYTMNWVRQAPGKGLEWVALINPYKGVSTYNQKFKDRFTISVDKSKNTAYLQMNSLRAEDTAVYYCARSGYYGDSDWYFDVWGQGTLVTVSS light: EIVMTQSPATLSVSPGERATLSCRASQSISNNLHWYQQKPGQAPRLLIKYASQSISGIPARFSGSGSGTEFTLTISSLQSEDFAVYFCQQSNTWPYTFGGGTKLEIKTVAAPSVFIFPPSDEQLKSGTASVVCLLNNFYPREAKVQWKVDNALQSGNSQESVTEQDSKDSTYSLSSTLTLSKADYEKHKVYACEVTHQGLSSPVTKSFNRGEC	480	0.00887	18800	~10
V2-V6 (CC-2 variant 2, bispecific FLT3xCD3 IgGsc antibody) (bispecific antibody, IgGsc format, Fc-attenuated; also called Version 2; Humanized 4G8 FLT3 variable region Variant 2 with V6 CD3 scFv) heavy: QVQLVQSGAEVKKPGGSLRLSCAASGYTFTSYWMHWVRQAPGQGLEWIGEIDPSDSYTDYAQKFKDRVTISRDTSKNTLYLQLSSLRAEDTAVYYCARAITTTPFDFWGQGTLVTVSSASTKGPSVFPLAPSSKSTSGGTAALGCLVKDYFPEPVTVSWNSGALTSGVHTFPAVLQSSGLYSLSSVVTVPSSSLGTQTYICNVNHKPSNTKVDKKVEPKSCDKTHTCPPCPAPPVAGPSVFLFPPKPKDTLMISRTPEVTCVVVGVSHEDPEVKFNWYVDGVEVHNAKTKPREEQYNSTYRVVSVLTVLHQDWLNGKEYKCKVSNKQLPSPIEKTISKAKGQPREPQVYTLPPSRDELTKNQVSLTCLVKGFYPSDIAVEWESNGQPENNYKTTPPVLDSDGSFFLYSKLTVDKSRWQQGNVFSCSVMHEALHNHYTQKSLSLSPGKSGDIQMTQSPSSLSASVGDRVTITCRASQDIRNYLNWYQQKPGKAPKLLIYYTSRLESGVPSRFSGSGSGTDYTLTISSLQPEDFATYYCQQGNTLPWTFGQGTKVEIKGGGGSGGGGSGGGGSEVQLVESGGGLVQPGGSLRLSCAASGYSFTGYTMNWVRQAPGKGLEWVALINPYKGVSTYNQKFKDRFTISVDKSKNTAYLQMNSLRAEDTAVYYCARSGYYGDSDWYFDVWGQGTLVTVSS light: EIVMTQSPATLSVSPGERATLSCRASQSISNNLHWYQQKPGQAPRLLIKYASQSISGIPARFSGSGSGTEFTLTISSLQSEDFAVYFCQQSNTWPYTFGGGTKLEIKTVAAPSVFIFPPSDEQLKSGTASVVCLLNNFYPREAKVQWKVDNALQSGNSQESVTEQDSKDSTYSLSSTLTLSKADYEKHKVYACEVTHQGLSSPVTKSFNRGEC	88000	0.0318	540	~10
V1-V6 (CC-2 variant 1, bispecific FLT3xCD3 IgGsc antibody) (bispecific antibody, also called Version 1; Humanized 4G8 FLT3 variable region Variant 1 with V6 CD3 scFv) heavy: QVQLVQSGAEVKKPGGSLRLSCAASGYTFTSYWMHWVRQAPGQGLEWIGEIDPSDSYTDYAQKFKDRVTISRDTSKNTLYLQLSSLRAEDTAVYYCARAITTTPFDFWGQGTLVTVSSASTKGPSVFPLAPSSKSTSGGTAALGCLVKDYFPEPVTVSWNSGALTSGVHTFPAVLQSSGLYSLSSVVTVPSSSLGTQTYICNVNHKPSNTKVDKKVEPKSCDKTHTCPPCPAPPVAGPSVFLFPPKPKDTLMISRTPEVTCVVVGVSHEDPEVKFNWYVDGVEVHNAKTKPREEQYNSTYRVVSVLTVLHQDWLNGKEYKCKVSNKQLPSPIEKTISKAKGQPREPQVYTLPPSRDELTKNQVSLTCLVKGFYPSDIAVEWESNGQPENNYKTTPPVLDSDGSFFLYSKLTVDKSRWQQGNVFSCSVMHEALHNHYTQKSLSLSPGKSGDIQMTQSPSSLSASVGDRVTITCRASQDIRNYLNWYQQKPGKAPKLLIYYTSRLESGVPSRFSGSGSGTDYTLTISSLQPEDFATYYCQQGNTLPWTFGQGTKVEIKGGGGSGGGGSGGGGSEVQLVESGGGLVQPGGSLRLSCAASGYSFTGYTMNWVRQAPGKGLEWVALINPYKGVSTYNQKFKDRFTISVDKSKNTAYLQMNSLRAEDTAVYYCARSGYYGDSDWYFDVWGQGTLVTVSS light: not shown	63000	0.022	489	~10
V5-V6 (CC-2 variant 5, bispecific FLT3xCD3 IgGsc antibody) (bispecific antibody, IgGsc format, Fc-attenuated; also called Version 5; Humanized 4G8 FLT3 variable region Variant 5 with V6 CD3 scFv) heavy: QVQLVQSGAEVKKPGGSLRLSCAASGYTFTSYWMHWVRQAPGQGLEWIGEIDPSDSYKDYNQKFKDRVTISRDTSKNTLYLQLSSLRAEDTAVYYCARAITTTPFDFWGQGTLVTVSSASTKGPSVFPLAPSSKSTSGGTAALGCLVKDYFPEPVTVSWNSGALTSGVHTFPAVLQSSGLYSLSSVVTVPSSSLGTQTYICNVNHKPSNTKVDKKVEPKSCDKTHTCPPCPAPPVAGPSVFLFPPKPKDTLMISRTPEVTCVVVGVSHEDPEVKFNWYVDGVEVHNAKTKPREEQYNSTYRVVSVLTVLHQDWLNGKEYKCKVSNKQLPSPIEKTISKAKGQPREPQVYTLPPSRDELTKNQVSLTCLVKGFYPSDIAVEWESNGQPENNYKTTPPVLDSDGSFFLYSKLTVDKSRWQQGNVFSCSVMHEALHNHYTQKSLSLSPGKSGDIQMTQSPSSLSASVGDRVTITCRASQDIRNYLNWYQQKPGKAPKLLIYYTSRLESGVPSRFSGSGSGTDYTLTISSLQPEDFATYYCQQGNTLPWTFGQGTKVEIKGGGGSGGGGSGGGGSEVQLVESGGGLVQPGGSLRLSCAASGYSFTGYTMNWVRQAPGKGLEWVALINPYKGVSTYNQKFKDRFTISVDKSKNTAYLQMNSLRAEDTAVYYCARSGYYGDSDWYFDVWGQGTLVTVSS light: EIVMTQSPATLSVSPGERATLSCRASQSISNNLHWYQQKPGQAPRLLIKYASQSISGIPARFSGSGSGTEFTLTISSLQSEDFAVYFCQQSNTWPYTFGGGTKLEIKTVAAPSVFIFPPSDEQLKSGTASVVCLLNNFYPREAKVQWKVDNALQSGNSQESVTEQDSKDSTYSLSSTLTLSKADYEKHKVYACEVTHQGLSSPVTKSFNRGEC	160	0.00449	29600	~10
